Where two headings read alike, the source gives them in different places.

The target in assay [1] is polymerized microtubules. Nature of the assay: single-molecule TIRF microscopy motility assay.
The target of assay [2] is polymerized microtubules. Nature of the assay: single-molecule TIRF microscopy motility assay. This is another data set of the same source.

“full-length human KIF1A fused to a C-terminal mScarlet-strepII tag (from UniProt Q12756 1-1690) (natural protein)”: the results for the landing rate (molecules bound to microtubules per length and time) with polymerized microtubules [1] and with polymerized microtubules [2] were 0.002 /μm/sec and 0.012 /μm/sec, respectively.
“full-length human KIF1A(A255V) fused to a C-terminal mScarlet-strepII tag (from UniProt Q12756 1-1690) (natural protein)”: the landing rate (molecules bound to microtubules per length and time) with polymerized microtubules [1] is 0.024 /μm/sec.
On the same count and under the same terms, then “full-length human KIF1A(R350G) fused to a C-terminal mScarlet-strepII tag (from UniProt Q12756 1-1690) (natural protein)”, with 0.025 /μm/sec.
Same read-out and setting: then “full-length human KIF1A(V8M) fused to a C-terminal mScarlet-strepII tag (from UniProt Q12756 1-1690) (natural protein)”, with 0.039 /μm/sec.

For the origin of these results see article doi:10.1101/597906.
